Laboratory results taken from patent US8962795B2, “Factor H binding peptides and uses thereof” (The Trustees of the University of Pennsylvania, priority 2010, dated 2015).
Positions of bridges follow the written chain, without caps; N, C: chain ends. No end group written: not given here.

Columns and labels:
factor H [1] = target: T1, factor H (Homo sapiens, UniProt P08603); test: Monoclonal phage ELISA, binding of phage clones to factor H (binding area localisation); conditions: SCR5-18 attributed in absence of stable binding to N- or C-terminus of factor H
T1 construct: Human factor H was purified from normal human serum (NHS) by 5-12% PEG precipitation; from tissue; host or cells: normal human serum (NHS)
Procedure: (§1) Microtiter wells were coated overnight with either factor H or BSA at 5 μg/mL in PBS at 4° C., and saturated with 5% non-fat milk in PBST for 1 h. Completely separated individual phage plaques from the third round of screening were picked and amplified. Phage particles of each amplified individual phage plaque were added to both factor H- and BSA-coated wells in parallel and allowed to bind at RT for 1 h. After six washes with PBST, bound phages were detected with HRP-conjugated anti-M13 monoclonal antibody (GE Healthcare), using ABTS (Roche) for color development. Clones that bound to factor H but not to BSA were considered positive; single-stranded DNA from positive clones was prepared using an M13 kit (Qiagen, Valencia, Calif.) and sequenced by the DNA sequencing facility of the University of Pennsylvania.
(§2) To localize the binding sites on factor H of the positive clones, we further tested each clone by monoclonal phage ELISA for binding to factor H and its N- and C-terminal fragments, i.e. fH1-4 and fH19-20.

Sheep erythrocytes = test: Hemolytic assay (factor H cell-surface binding); format: cell-based; conditions: for effect on hemolytic assay: peptide expressed as fusion protein with phage PIII domain, not shown
Procedure: (§3) To determine whether the binding of the 5C6 peptide interferes with the regulatory activity and cell-surface binding capacity of factor H, we performed factor H cofactor activity assays using purified C3b, factor H and factor I, as well as hemolytic assays, both which were performed in the presence of different concentrations of the 5C6 peptide. The hemolysis assay experiments were repeated at least three times using lepirudin plasma from different blood donors.
Hemolytic assays were performed to determine whether the peptide altered factor H cell-surface binding activity. Sheep erythrocytes (Cocalico Biological Inc., Reamstown, Pa.) were washed with VBS containing 5 mM Mg^2+/EGTA (VBS-Mg^2+/EGTA) until the supernatant was clear. The assay was titrated by lysing erythrocytes in serial dilution with water in a final volume of 300 μl. The OD405 of the supernatants was measured, and the amount of the erythrocytes yielding an OD405 of ˜1 was used in the assay. Serial dilutions of the 5C6 peptide or monoclonal antibody MH10 (which binds fH19-20 and inhibits factor H cell surface binding) with the determined amount of sheep erythrocytes and lepirudin plasma diluted 1:10 in VBS-Mg^2+/EGTA in a final volume of 300 μL were incubated at 37° C. for 1 h in a shaking water bath. After centrifugation the OD405 of the supernatants was measured, and the OD value was used to represent the cell lysis.

fH19-20 [2] = target: T2, fH19-20 (Homo sapiens, UniProt P08603); test: Monoclonal phage ELISA, binding of phage clones to fH19-20
T2 sequence (P08603 1107-1231): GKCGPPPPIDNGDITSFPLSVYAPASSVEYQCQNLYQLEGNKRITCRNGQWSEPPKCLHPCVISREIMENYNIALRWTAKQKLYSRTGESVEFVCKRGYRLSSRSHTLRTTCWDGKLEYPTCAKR
Procedure: as §1, §2

[3] = target: T3, factor H cofactor activity (Homo sapiens, UniProt P08603); test: Factor H cofactor activity assay (factor I-mediated cleavage of C3b); format: biochemical; conditions: for effect on cofactor assay: peptide expressed as fusion protein with phage PIII domain, not shown
T3 construct: Human factor H was purified from normal human serum (NHS) by 5-12% PEG precipitation; from tissue; host or cells: normal human serum (factor H, C3); factor I from unnamed 'other sources'
Procedure: as §3
The factor H cofactor activity assay was performed according to known methods. In brief, 1.14 μM C3b, 16 nM factor I, and 72 nM factor H were incubated with various amounts of the 5C6 peptide (0.4, 4, and 40 μM, respectively) in PBS at 37° C. for 1 hr in a final volume of 20 μl. The reaction was terminated by adding SDS-PAGE loading buffer, and the samples were analyzed by 8% SDS-PAGE under reducing conditions, followed by Coomassie blue staining.

factor H [4] = target: T1, factor H; test: ELISA, binding of purified factor H to immobilized biotinylated peptide; conditions: biotinylated peptide captured by coated streptavidin, polyclonal antibody detection
Procedure: (§4) Two approaches were used to evaluate the binding of synthetic peptides to factor H. First, we used peptide-phage competition assays, in which serially diluted synthetic peptide was added to its parent phage at the step of phage binding to coated factor H. The rest of the steps were performed as described above for monoclonal phage ELISA. Second, ELISA experiments were used to evaluate the binding of factor H to the immobilized peptide. Microtiter plates were coated with streptavidin (New England Biolabs) at 10 μg/ml in PBS at 4° C. overnight, and saturated with 2% BSA in PBS. After washing, either the biotinylated 5C6 peptide or a biotinylated control peptide (linear compstatin; IAVVQDWGHHRAT; SEQ ID NO:10) was added at 10 μg/ml and allowed to bind at RT for 30 min. The wells were washed again, and factor H serially diluted in PBS, starting with 2.5 μg/ml, was added. After 1 h of binding, the plates were washed, and bound factor H was detected with goat anti-human factor H polyclonal antibody (Quidel, San Diego, Calif.), followed by HRP-conjugated rabbit anti-goat IgG (Bio-Rad). […]

[5] = system: AP complement activation (surface-bound activated C3); test: Inhibition of biomaterial-induced AP activation by immobilized peptide (surface-bound activated C3); format: biochemical, human
Procedure: Polystyrene microtiter wells, which served as a model biomaterial, were coated overnight with streptavidin (10 μg/ml in PBS) at 4° C. After washing, the biotinylated 5C6 peptide and the control peptide (10 μg/ml in PBS) were added to the wells and incubated at RT for 30 min. The wells were again washed and serially diluted lepirudin plasma in VBS-Mg^2+/EGTA was added and incubated at RT for 1 h. In some experiments intended to monitor the inhibition of AP by immobilized peptide on a HSA monolayer, the washed wells were saturated with 2% HSA in PBS for 1 h, prior to the addition of plasma. In both series of experiments, the wells were then washed, and the binding sites were saturated with 2% BSA in PBS for 1 h. Bound fragments of activated C3 were detected with an HRP-conjugated goat anti-human C3 polyclonal antibody (Cappel, Aurora, Ohio). In parallel, captured factor H from serum was detected with goat anti-human factor H polyclonal antibody followed by HRP-conjugated rabbit anti-goat IgG in duplicate wells as described above.

factor H [6] = target: T1, factor H; test: Peptide-phage competition assay; format: binding; conditions: serially diluted synthetic peptide; coated factor H
Procedure: as §4

fH1-4 [7] = target: T4, fH1-4 (Homo sapiens, UniProt P08603); test: SPR, fH1-4 fragment on surface-bound peptide; format: binding; conditions: fragment 100 nM
T4 construct: made in house
Procedure: (§5) The binding of factor H with surface-bound 5C6 peptide was further characterized using surface plasmon resonance (SPR) on a ProteOn XPR36 instrument (Bio-Rad Inc., Hercules, Calif.) using PBST (10 mM sodium phosphate, 150 mM NaCl, 0.005% Tween 20) as running buffer. Streptavidin (50 μg/ml in 10 mM sodium acetate pH 5.0) was immobilized on a GLC sensor chip at 30° C. using amine coupling. The biotinylated 5C6 peptide and a biotinylated control peptide (linear compstatin; see above) were captured on separate streptavidin-coated channels to a density of ˜200 resonance units (RU). Purified factor H (Complement Technologies, Tyler, Tex.) or recombinant fragments fH1-4 and fH19-20 were injected at a concentration of 100 nM for 2 rain at a flow rate of 25 μl/min with a dissociation phase of 6 min. A single injection of 2 M NaCl for 30 s was used to regenerate the surface between injections. Data were processed using ProteOn Manager software by subtracting the signals from interspots and a blank streptavidin channel. In order to estimate the apparent binding affinity, a twofold dilution series of factor H (0.24-500 nM) was injected using the same protocol and fitted to various kinetic models using ProteOn Manager. […]

factor H [8] = target: T1, factor H; test: Factor H concentration in plasma after incubation on peptide-coated surface; conditions: data not shown
factor H [9] = target: T1, factor H; test: Capture of factor H from plasma by immobilized peptide; format: binding; conditions: vs control peptide
Procedure: as §4, with “After washing, either the biotinylated 5C6 peptide or a biotinylated control peptide (linear compstatin; IAVVQDWGHHRAT; SEQ ID NO:10) was added at 10 μg/ml and allowed to bind at RT for 30 min. The wells were washed again, and factor H serially diluted in PBS, starting with 2.5 μg/ml, was added.” left out
Polystyrene microtiter wells, which served as a model biomaterial, were coated overnight with streptavidin (10 μg/ml in PBS) at 4° C. […] Bound fragments of activated C3 were detected with an HRP-conjugated goat anti-human C3 polyclonal antibody (Cappel, Aurora, Ohio). In parallel, captured factor H from serum was detected with goat anti-human factor H polyclonal antibody followed by HRP-conjugated rabbit anti-goat IgG in duplicate wells as described above.

fH19-20 [10] = target: T2, fH19-20; test: SPR, fH19-20 fragment on surface-bound peptide; format: binding; conditions: fragment 100 nM
Procedure: as §5

factor H [11] = target: T1, factor H; test: SPR, factor H on surface-bound peptide; format: binding; conditions: for SPR binding of factor H to immobilized peptide: biotinylated peptide on streptavidin chip, factor H 100 nM
Procedure: The binding of factor H with surface-bound 5C6 peptide was further characterized using surface plasmon resonance (SPR) on a ProteOn XPR36 instrument (Bio-Rad Inc., Hercules, Calif.) using PBST (10 mM sodium phosphate, 150 mM NaCl, 0.005% Tween 20) as running buffer. Streptavidin (50 μg/ml in 10 mM sodium acetate pH 5.0) was immobilized on a GLC sensor chip at 30° C. using amine coupling. The biotinylated 5C6 peptide and a biotinylated control peptide (linear compstatin; see above) were captured on separate streptavidin-coated channels to a density of ˜200 resonance units (RU). Purified factor H (Complement Technologies, Tyler, Tex.) or recombinant fragments fH1-4 and fH19-20 were injected at a concentration of 100 nM for 2 rain at a flow rate of 25 μl/min with a dissociation phase of 6 min. A single injection of 2 M NaCl for 30 s was used to regenerate the surface between injections. Data were processed using ProteOn Manager software by subtracting the signals from interspots and a blank streptavidin channel. In order to estimate the apparent binding affinity, a twofold dilution series of factor H (0.24-500 nM) was injected using the same protocol and fitted to various kinetic models using ProteOn Manager. In order to exclude sensor chip matrix-specific surface binding, the same experiment was repeated on Biacore 3000 instrument (GE Healthcare) using a SA chip under the same conditions as described above.

fH1-4 [12] = target: T4, fH1-4; test: Monoclonal phage ELISA, binding of phage clones to fH1-4
Procedure: as §1, §2

T1 sequence (P08603 19-1231): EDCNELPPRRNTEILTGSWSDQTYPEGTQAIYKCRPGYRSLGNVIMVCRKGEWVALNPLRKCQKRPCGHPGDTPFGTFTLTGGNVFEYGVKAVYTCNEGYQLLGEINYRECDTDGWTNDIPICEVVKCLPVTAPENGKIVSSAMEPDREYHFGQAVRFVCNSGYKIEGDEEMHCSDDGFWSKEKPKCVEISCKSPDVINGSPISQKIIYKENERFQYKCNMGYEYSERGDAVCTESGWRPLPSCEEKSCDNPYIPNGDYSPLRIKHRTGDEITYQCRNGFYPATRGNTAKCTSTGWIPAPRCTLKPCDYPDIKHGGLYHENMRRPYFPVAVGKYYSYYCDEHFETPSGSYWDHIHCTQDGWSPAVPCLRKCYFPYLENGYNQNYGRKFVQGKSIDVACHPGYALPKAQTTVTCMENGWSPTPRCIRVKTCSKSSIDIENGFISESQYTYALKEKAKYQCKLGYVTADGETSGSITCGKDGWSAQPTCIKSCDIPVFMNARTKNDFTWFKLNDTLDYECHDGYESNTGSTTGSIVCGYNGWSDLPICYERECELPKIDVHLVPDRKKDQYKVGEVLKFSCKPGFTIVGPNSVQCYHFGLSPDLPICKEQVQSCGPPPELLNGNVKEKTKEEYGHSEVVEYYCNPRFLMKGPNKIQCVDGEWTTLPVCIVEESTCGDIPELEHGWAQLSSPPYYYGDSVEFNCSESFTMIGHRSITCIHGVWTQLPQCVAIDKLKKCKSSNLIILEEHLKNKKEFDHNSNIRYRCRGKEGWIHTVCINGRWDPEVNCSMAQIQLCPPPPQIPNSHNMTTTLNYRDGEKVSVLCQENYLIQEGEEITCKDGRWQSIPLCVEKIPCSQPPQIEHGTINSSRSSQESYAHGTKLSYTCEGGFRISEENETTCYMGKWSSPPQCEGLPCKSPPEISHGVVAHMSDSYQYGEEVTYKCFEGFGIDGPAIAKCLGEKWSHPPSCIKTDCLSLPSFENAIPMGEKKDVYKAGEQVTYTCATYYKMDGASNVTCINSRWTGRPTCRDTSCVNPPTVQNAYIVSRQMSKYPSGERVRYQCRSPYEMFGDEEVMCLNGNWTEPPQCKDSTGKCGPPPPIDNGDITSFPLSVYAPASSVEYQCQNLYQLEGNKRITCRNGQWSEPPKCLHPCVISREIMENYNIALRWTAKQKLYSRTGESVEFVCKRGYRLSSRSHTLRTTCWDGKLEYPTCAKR
T3 sequence (P08603 19-1231): as above
T4 sequence (P08603 19-264): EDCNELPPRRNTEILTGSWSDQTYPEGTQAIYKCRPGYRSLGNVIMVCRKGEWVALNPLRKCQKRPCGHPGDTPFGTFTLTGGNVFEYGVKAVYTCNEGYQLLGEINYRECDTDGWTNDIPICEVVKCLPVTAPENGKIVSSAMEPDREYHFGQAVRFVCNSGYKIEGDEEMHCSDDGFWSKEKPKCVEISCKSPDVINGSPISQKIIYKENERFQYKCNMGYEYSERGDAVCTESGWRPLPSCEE

ASPSWCSYSHWCRH [5D1]
Binding area on factor H (factor H [1]): SCR5-18

ASSCMYSYWCTH [5-2B2]
Binding area on factor H (factor H [1]): SCR5-18

ASSFKCDYSHWCLH [5E10]
Binding area on factor H (factor H [1]): SCR5-18

ASSGMCFTKKTVLC [4A1]
effect on hemolytic assay (Sheep erythrocytes): affected
binding of phage clone to fH19-20 (fH19-20 [2]): bind to the C-terminal two SCR of factor H
Binding area on factor H (factor H [1]): SCR19-20

ASSNVCSYSYWCAH [5G11]
Binding area on factor H (factor H [1]): SCR5-18

ASSSRCTYDHWCSH (disulfide 6-12 (inferred); not fully specified; also: biotinylated) [5C6, used biotinylated when immobilized]
effect on cofactor assay [3]: no such effect
effect on factor H cofactor activity ([3]; synthetic peptide up to 40 μM, 550-fold excess over factor H (72 nM)): did not inhibit
binding signal for factor H on immobilized peptide (ELISA) (factor H [4]): strong binding signal
complement activation on peptide-immobilized surface ([5]; polystyrene with HSA monolayer, lepirudin plasma in VBS-Mg2+/EGTA, vs control peptide): substantially inhibited
complement activation on peptide-immobilized surface ([5]; polystyrene without HSA pre-saturation, plasma): strongly inhibited
inhibition of binding of the other class 3 phages to factor H by 5C6 peptide (factor H [6]): strongly inhibited
inhibition of parent phage binding to factor H by synthetic peptide (factor H [6]): inhibited its parent phages from binding to factor H in a dose-dependent manner
lysis of sheep erythrocytes (Sheep erythrocytes; 10-fold diluted lepirudin plasma, peptide up to 40 μM): No lysis
effect on hemolytic assay (Sheep erythrocytes): no such effect
SPR binding of fH1-4 fragment to immobilized peptide (fH1-4 [7]): no binding
factor H concentration in plasma incubated on peptide-coated surface (factor H [8]): no significant decline
Binding area on factor H (factor H [1]): SCR5-18
factor H capture from plasma by immobilized peptide (factor H [9]; polystyrene with HSA monolayer): pronounced factor H capture
factor H capture from plasma by immobilized peptide (factor H [9]; polystyrene without HSA pre-saturation): captured more factor H
SPR binding of fH19-20 fragment to immobilized peptide (fH19-20 [10]): a significant SPR response could also be detected for the fH19-20 fragment, this interaction was not stable
SPR binding of factor H to immobilized peptide (factor H [11]): high binding activity and stability
SPR apparent binding affinity for factor H (factor H [11]; dilution series of factor H 0.24-500 nM, deviation from single-site model, apparent): concentration-dependent binding with high affinity

ASSYDVGYSHDCRF [5-2C6]
effect on cofactor assay [3]: affected
Binding area on factor H (factor H [1]): SCR1-4
binding of phage clone to fH1-4 (fH1-4 [12]): bound to the N-terminal regulatory region of factor H

IAVVQDWGHHRAT [Control Peptide (LC), reference compound]
binding signal for factor H on immobilized peptide (ELISA) (factor H [4]): not
SPR binding of factor H to immobilized peptide (factor H [11]): no significant binding
